Results from US20200277374A1 (Alector, published 2020).
Where a chain is given by its changes, count along the chain named.

B1: anti-Siglec-7 antibody 4E3 (antibody, V domains shown)
VH: EVQLVESGGALVKPGGSLKISCAVSGFIFSNYDMSWVRQNPEKRLEWVATISSGGGYTYYPDSVKGRFTISRDNAKNALYLQMSSLRSEDTALYYCTRHGYGNYDWYFDVWGAGATVTVSS
VL: QIVLTQSPAILSASPGEKVTMTCSANSSFTYMYWYQQKPGSSPRLLIFDTSNLASGVPIRFSGSGSGTSYSLTISRMEAEDTATYYCQQWSSSPLTFGAGTKLELK
notes: VL FR1 there holds a Z); also called S7-4E3; mAb S7-4E3
B2: anti-Siglec-7 antibody 4A1 (antibody, V domains shown)
VH: QVQLQQSGSELRSPGSSVKLSCKDFDSEVFPITYMNWVRQKPGHGFEWIGDILPSIGRTMYGEKFEDKATLDADTVSNTAYLELNSLTSEDSAIYYCARSEGYLLAYWGQGTLVTVSA
VL: DVVMTQTPLSLPVSLGDQASISCRSSQSLVHSTGNIYLHWYLQKPGQSPKLLIYKVSNRFZGVPDRFSGSGSGTDFTLKISRVEAEDLGVYFCSQNTHVPYTFGGGTKLEIK
notes: Variable domains assembled from FR and CDR entries
B3: anti-Siglec-7 antibody 7F12 (antibody, V domains shown)
VH: B2 VH
VL: B2 VL with V3L, I36T, Z61S, S72A
notes: as for B2

How the values were obtained:
[1] = target: T1, human Siglec-7 expressed on human cells (primary monocytes, dendritic cells, macrophages, NK cells, … (human, UniProt Q9Y286 19-467)); assay: cell-based or functional assay
[2] = target: T1, human Siglec-7 expressed on human cells …; assay: cell-based or functional assay; remark: listed apart in the source
[3] = target: T1, human Siglec-7 expressed on human cells …; assay: cell-based or functional assay; remark: listed apart in the source
[4] = target: T1, human Siglec-7 expressed on human cells …; assay: FACS, human primary monocytes, 10 ug/ml mAb
Description: (§1) Initial characterization of Siglec-7 antibodies involved determining their ability to bind Siglec-7 expressed on human primary monocytes, human primary macrophages, human primary dendritic cells, human primary neutrophils, and human primary natural killer (NK) cells. Cells were harvested, plated at 10⁶/ml in a 96 well plate, and incubated in 100 ul PBS containing 2% FBS, 2 mM EDTA and 10 μg/ml Mab and Fc blocking reagent for 1 hour in ice. Cells were washed twice and incubated in 100 ul PBS containing 2% FBS, 2 mM EDTA and 5 ug/ml PE-conjugated secondary antibody for 30 minutes on ice. Cells were washed twice in cold PBS and analyze by flow cytometry on a BD FACS Canto. Data analysis and calculation of MFI values was performed with FlowJo (TreeStar) software version 10.0.7.
(§2) Percent positive binding and mean fluorescent intensity (MFI) values for cell types bound by Siglec-7 antibodies are listed in Table 4A. Binding is compared to an isotype control. The antibodies bind to human primary monocytes, human primary dendritic cells, and human primary macrophages. In Table 4A, “Buffer” refers to cells that were treated only with the PBS buffer described supra; “Secondary Ab” refers to cells that were treated only with the PE-conjugated secondary antibody; “mIgG1,” “mIgG2a,” and “mIgG2b” refer to isotype control antibodies; and “RDS7” refers to commerically available anti-Siglec-7 antibody Mab1138 (R&D Systems; Cat. No. MAB 1138).

[5] = target: T1, human Siglec-7 expressed on human cells …; assay: FACS, human primary macrophages, 10 ug/ml mAb
Description: as §1, §2

[6] = target: T1, human Siglec-7 expressed on human cells …; assay: FACS, human primary dendritic cells, 10 ug/ml mAb
Description: as §1, §2

[7] = target: T1, human Siglec-7 expressed on human cells …; assay: FACS titration on primary human dendritic cells, donor 358, 4 C
Description: (§3) Two Siglec-7 antibodies, 4E3 and 10B5, were titrated 2-fold for a 12-point curve with a concentration range of 6.67-0.00325 nM to assess binding and calculate half-maximal concentration (EC₅₀) for binding to primary human dendritic cells (FIG. 5B). Antibodies were serially diluted and incubated with cells in PBS with 1% BSA, 1 mM EDTA for 1 hour on ice (4° C.). Cells were pelleted and resuspended with goat anti-mouse secondary antibody conjugated with APC (BD Biosciences) at a 1:200 dilution in buffer. Secondary detection antibody was incubated for 30 minutes on ice (4° C.), then cells were washed 3 times in buffer before analyzing on a BD FACS Canto for APC MR. Data were analyzed with FlowJo Software (TreeStar).

[8] = target: T1, human Siglec-7 expressed on human cells …; assay: FACS titration on primary human dendritic cells, donor 359, 4 C
Description: as §3

[9] = target: T2, Histidine-tagged human Siglec-7 (NovoProtein) (human, UniProt Q9Y286 19-357, limits assumed); assay: SPR (BiaCore T200, 25 C), antibody captured on anti-mouse IgG, Siglec-7-His 25 nM, single-concentration kinetics
T2 construct: Bought protein; also called purified Siglec-7-his tagged protein; not shown: histidine tag
Description: (§4) SPR data was collected at a rate of 10 Hz at 25′ C on a BiaCore T200 instrument. Data analysis was performed using BiaCore T200 Evaluation Software, version 2.0. HBS-EP+ (100 mM HEPES, 1.5 M NaCl, 30 mM EDTA, 0.5% v/v Surfactant P20, pH 7.4) was used as running buffer and for preparing reagents.
(§5) Mouse-derived antibodies (25 nM) against Siglec-7 were captured (60 s contact time, 30 μL/min flow rate, 0 s stabilization time) on a CM5 sensor chip (GE Healthcare) immobilized with anti-mouse IgG. Histidine-tagged human Siglec-7 (NovoProtein) was then flowed over the captured anti-Siglec-7 surface (120 s contact time, 30 μL/min flow rate, 300 s dissociation time). Concentration of antigen ranged from 5 nM to 100 nM, depending on information obtained from an initial screen. Duplicate single-concentration trials were performed and bracketed by a blank (0 nM antigen) sample. The chip surface was regenerated in between cycles using 10 mM glycine-HCl, pH1.7 (60 s contact time, 30 μL/min flow rate, 60 s stabilization time). The resulting SPR signal was obtained as the difference in response from measurements performed on a blank flow cell.
(§6) Affinity constants (KD) were calculated from the ratio kd/kₐ. For one antibody (clone 1E8), we validated the single-concentration analysis with a multiple-concentration approach (five concentrations of antigen used, plus one blank).

[10] = target: T3, Siglec-7-Fc (plate immobilized) (human, UniProt Q9Y286 19-357, limits assumed); assay: RBC solid adhesion assay, plate-coated Siglec-7-Fc, antibody 0.5 or 1.0 ug/ml; % of RBC binding without antibody
T3 construct: also called Siglec-7-Fc protein; immobilized Siglec-7; not shown: Fc part
In short: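 Plates coated overnight at RT with 5 μg/ml Siglec-7-Fc and blocked in PBS with BSA and 1 mM CaCl₂. Antibody (0.5 or 1.0 μg/ml) bound 1 h at RT, then RBCs (3.0×10⁶ cells/ml) added for 1 h at RT. Bound RBCs lysed and detected by peroxidase at 450 nm, expressed as % of binding without antibody.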

[11] = target: T2, Histidine-tagged human Siglec-7 …; assay: SPR (BiaCore T200, 25 C), antibody captured on anti-mouse IgG, Siglec-7-His 35 nM, single-concentration kinetics
Description: as §4, §5, §6

T3 sequence (Q9Y286 19-357 limits assumed): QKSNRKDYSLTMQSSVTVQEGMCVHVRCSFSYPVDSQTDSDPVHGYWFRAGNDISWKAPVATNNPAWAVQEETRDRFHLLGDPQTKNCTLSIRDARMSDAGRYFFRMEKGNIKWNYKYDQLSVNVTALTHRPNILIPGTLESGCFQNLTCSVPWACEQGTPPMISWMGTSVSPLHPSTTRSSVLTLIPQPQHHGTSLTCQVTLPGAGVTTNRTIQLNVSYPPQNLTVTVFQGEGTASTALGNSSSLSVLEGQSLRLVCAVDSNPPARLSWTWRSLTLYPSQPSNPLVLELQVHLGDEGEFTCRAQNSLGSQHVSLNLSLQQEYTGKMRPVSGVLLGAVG
T2 sequence (Q9Y286 19-357 limits assumed): as above
T1 sequence (Q9Y286 19-467): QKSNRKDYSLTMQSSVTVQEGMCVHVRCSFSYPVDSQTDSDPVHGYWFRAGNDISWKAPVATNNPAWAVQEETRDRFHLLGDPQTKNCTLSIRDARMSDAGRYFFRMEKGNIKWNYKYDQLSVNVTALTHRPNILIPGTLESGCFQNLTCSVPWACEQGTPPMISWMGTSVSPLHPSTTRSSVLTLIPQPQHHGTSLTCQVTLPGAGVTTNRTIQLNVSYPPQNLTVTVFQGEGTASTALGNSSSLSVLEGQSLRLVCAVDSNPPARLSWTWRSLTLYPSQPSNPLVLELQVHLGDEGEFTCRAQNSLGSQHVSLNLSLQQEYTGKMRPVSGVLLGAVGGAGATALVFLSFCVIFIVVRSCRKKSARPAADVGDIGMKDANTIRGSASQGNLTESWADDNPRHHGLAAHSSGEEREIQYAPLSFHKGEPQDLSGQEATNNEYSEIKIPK

| Binder | Percent Siglec-7 Surface Expression, DCs [1] [%] | Percent Siglec-7 Surface Expression, Monocytes [1] [%] | Percent Siglec-7 Surface Expression, U937 cells [1] [%] | Percent Siglec-7 Surface Expression, Macrophages [2] [%] | Percent Siglec-7 Surface Expression, Microglia [2] [%] | Percent Siglec-7 Surface Expression, NK cells [2] [%] | % Positive [4] [%] | MFI [4] | % Positive [5] [%] | MFI [5] | % Positive [6] [%] | MFI [6] | Percent RBC Binding to Siglec-7 [10] [%] | Kd [11] [nM] | other results |
| --- | --- | --- | --- | --- | --- | --- | --- | --- | --- | --- | --- | --- | --- | --- | --- |
| B1 | 11.2 | 15.1 | 30.8 | 4.2 | 20.9 | 31.2 | 98.6 | 362 | 99.6 | 4150 | 99.7 | 2650 | 20.2 | – | EC50 of Siglec-7 cell surface downregulation, primary human dendritic cells, donor 362 [3]: 0.114 nM; EC50 of Siglec-7 cell surface downregulation, primary human dendritic cells, donor 363 [3]: 0.095 nM; EC50 of Siglec-7 cell surface downregulation, primary human dendritic cells, donor 364 [3]: 0.0499 nM; EC50 of Siglec-7 cell surface downregulation, primary human dendritic cells, donor 365 [3]: 0.0336 nM; EC50 [7]: 0.336 nM; EC50 [8]: 0.301 nM; Kd [9]: 0.3 nM |
| B2 | 99.6 | 39.8 | 89.5 | 13.1 | 26.3 | 132 | 99.4 | 486 | 99.3 | 14600 | 99.7 | 5450 | 11.2 | 0.3 | – |
| B3 | 96.9 | 39 | 86.3 | 13.1 | 28.1 | 124 | 99.3 | 472 | 99.3 | 12300 | 99.7 | 5000 | 7.9 | 0.4 | – |
